IntAct's records for PubMed 15282298

B1: Meiosis-inducing protein 1 (Saccharomyces cerevisiae), P21190 (parent)
chain: MQADMHGKLHAALEDGFFLFPFEQQQQPNIYYDTTTDQEDRPCFSFGSTISPRSWHFEKSDKIASSQLQNLVHTQPIHLINPQILFNEEFLNLENIDSQPISKETKTTKDCTMATGPERGKKSSESTRSSSLSSLFSNDESASTFHSSFNNHDNFQKSNRNGDDIDISDTIKYETNTNAQKDIKIFQENFEFNEFPYTQDFYPYTTNYTYSKPTNIHESINSKNTDSYSQYQDQFPPHTDNIHSFNNRHYSNHKSTNCNYYNNTSNNNNASDNVYEADPFIDEPQVPSYYYPLEIAFDVEKSPPPSLQKLNSKELEFLKKLNSKLSRYAAAYSFSSSNDQDYYDKVRFQEISYKFSKTYS
partner: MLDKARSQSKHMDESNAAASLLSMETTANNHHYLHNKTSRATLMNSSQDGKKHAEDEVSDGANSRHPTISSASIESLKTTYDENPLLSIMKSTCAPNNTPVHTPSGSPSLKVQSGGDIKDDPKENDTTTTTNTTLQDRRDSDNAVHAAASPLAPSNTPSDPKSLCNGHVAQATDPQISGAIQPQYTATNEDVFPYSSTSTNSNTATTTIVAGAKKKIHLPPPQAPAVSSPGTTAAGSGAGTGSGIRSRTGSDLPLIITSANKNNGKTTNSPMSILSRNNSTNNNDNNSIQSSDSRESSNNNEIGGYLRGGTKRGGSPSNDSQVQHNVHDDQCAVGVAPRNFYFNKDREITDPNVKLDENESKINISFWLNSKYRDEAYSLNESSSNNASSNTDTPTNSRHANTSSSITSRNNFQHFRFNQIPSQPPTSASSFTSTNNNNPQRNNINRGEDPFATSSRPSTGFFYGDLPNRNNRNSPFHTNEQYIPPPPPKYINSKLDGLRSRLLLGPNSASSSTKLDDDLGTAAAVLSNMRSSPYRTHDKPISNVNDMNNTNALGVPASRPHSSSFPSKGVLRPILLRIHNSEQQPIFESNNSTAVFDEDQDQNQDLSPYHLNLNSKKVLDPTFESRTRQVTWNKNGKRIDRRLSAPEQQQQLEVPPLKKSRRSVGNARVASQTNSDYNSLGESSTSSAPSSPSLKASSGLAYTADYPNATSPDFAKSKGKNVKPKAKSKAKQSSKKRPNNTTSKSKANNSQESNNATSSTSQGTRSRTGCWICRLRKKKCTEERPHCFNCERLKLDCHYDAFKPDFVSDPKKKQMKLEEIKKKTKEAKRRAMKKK

Variants of: B1
Settings: with ume6_yeast UME6, P39001

| Variant | effect of a mutation on the interaction |
| --- | --- |
| S306A | with no effect |
| S337A | with no effect |
| S302D | with no effect |
| S302A | with no effect |

Second part, the variant after the results:

| effect of a mutation on the interaction | Variant |
| --- | --- |
| decreasing interaction strength | Y359F |
| with no effect | S352A;S356A;S360A |
| with no effect | S333A |
